Measured values reported in patent US20250340649A1 (RUTGERS THE STATE UNIVERSITY OF NEW JERSEY, published 2025).
Where two headings read alike, the source gives them in different places.

Columns and labels:
[1] = target: HER2 on the surface of HER2+ cancer cells (BT474, SKOV-3) (human) (UniProt P04626); assay: flow cytometry on SKOV-3 cells (HER2+)
CD16b on neutrophils [2] = target: T1, CD16b on neutrophils (human, UniProt O75015 17-200); assay: flow cytometry, neutrophils (CD16b+); value of the drawn table
T1 construct: whole, on cells; also called neutrophils (CD16b+)

CD16b on neutrophils [3] = target: T1, CD16b on neutrophils; assay: flow cytometry, neutrophils (CD16b+); value at the PE-H- gate inside the histogram
CD16b on neutrophils [4] = target: T1, CD16b on neutrophils; assay: flow cytometry, neutrophils (CD16b+)
[5] = target: HER2 on the surface of HER2+ cancer cells (BT474, SKOV-3) (human) (UniProt P04626); assay: flow cytometry on BT-474 cells (HER2+)
[6] = target: T2, CD16a on NK92 (CD16+) cells (human, UniProt P08637 17-254); assay: flow cytometry, NK92 cells (CD16a+)
T2 construct: whole, on cells; also called NK92 cells (CD16a+); haNK92 cells (CD16a+)

HER3 = target: T3, HER3 (human, UniProt P21860 20-643, limits assumed); assay: ELISA, periplasmic extract on coated antigen, anti-HA-HRP
T3 construct: also called Recombinant Human ErbB 3 protein, Abcam ab196072
Excerpt: (§1) FIGS. 4A-4B. FIG. 4A) PBMCs were isolated using Ficoll-Paque method. Then, the RNAs were extracted, cDNA library was generated, genes amplified, and then cloned into pMECS-GG phagemids. The phagemids were used in phage display and the screened candidates were used to infect TG1 bacteria. Colonies were selected, grown, lysed, and the lysates removed. FIG. 4B) The lysates were then used in ELISA to screen for VHHs with the highest affinity to HER2 and with negligible binding to HER1, HER3, and HER4. Bovine serum albumin (BSA) and skim milk were used as controls.
(§2) The next day, each well was washed three times with washing buffer (DPBS+0.1% Tween 20) and then incubated with blocking buffer (2% skimmed milk) for 2 h at RT to block the free binding sites. Next, blocking buffer was replaced with 100 μL of periplasmic extract from above and incubated for 1 h at RT while shaking at 700 rpm. Each well was washed six times with washing buffer (DPBS+0.1% Tween 20) followed by addition of 100 μL HRP Anti-HA tag antibody (1:10000 dilution) and incubation for 1 h at RT while shaking at 700 rpm. Each well was washed again six times, followed by addition of 50 μL 1-Step™ Turbo TMB-ELISA substrate solution at incubation at RT for 15 min (without shaking and at dark). The reaction was stopped by adding 50 μL of stop solution ([…] sulfuric acid) and the plate was read at 450 nm using 630 nm as a reference (450/630 nm).

Bovine serum albumin = target: T4, Bovine serum albumin (bovine, UniProt P02769 25-607); assay: as above
T4 construct: Control antigen; also called BSA
Excerpt: as §1, §2

HER1 = target: T5, HER1 (human, UniProt P00533 25-645); assay: as above
T5 construct: The text says only 'HER1'; also called Recombinant human EGFR protein (Fc Chimera), Abcam ab155726; Fc part of the bought chimera not given
Excerpt: as §1, §2

[7] = target: T6, Biotinylated Human Her2/ErbB2 Protein, His, Avitag (AcroBiosystem HE2-H82E2) (human, UniProt P04626 23-652, biotinylated (Avitag)); assay: BLI (Octet), biotinylated HER2 on streptavidin sensor, VHH 1.875-60 nM
T6 construct: Bought protein; Loaded on streptavidin sensors for BLI; also called biotinylated HER2; HER2 antigen

[8] = target: T7, HER2 on the surface of HER2+ cancer cells (BT474, SKOV-3) (human, UniProt P04626 23-1255); assay: flow cytometry on BT-474 cells (HER2+), 100 nM binding sites
T7 construct: whole, on cells; also called human epidermal growth factor receptor 2
Description: (§3) OVASC-1 is an ascites-derived epithelial ovarian cancer cells obtained from a patient with advanced metastatic disease (11, 12). The expressed VHHs were then incubated with HER2⁺ (BT474, JIMT-1, and SKOV-3) and HER2⁻ (MDA-MB-231) cancer cell lines. Approximately 10⁶ cells were counted and washed using DPBS-1% FBS. […] After washing, FITC-conjugated anti-Human IgG or anti-Histag antibody were added and incubated on ice for 60 min. Cells were washed three times and then analyzed using Beckman-Coulter Gallios flow cytometer at Rutgers Flow cytometry core facility.
(§4) In the next step, the ability of the VHHs to recognize and bind to HER2 on the surface of HER2+ cancer cells was evaluated. […] MDA-MB-231 and OVASC-1 (HER2⁻) cancer cells were used as negative controls.

[9] = target: T6, Biotinylated Human Her2/ErbB2 Protein, …; assay: ELISA on HER2, tenfold dilutions 0-1000 nM; the HER2 form is not stated for this ELISA, Table 17 lists only the biotinylated HER2
[10] = target: T6, Biotinylated Human Her2/ErbB2 Protein, …; assay: BLI (Octet), biotinylated HER2 on streptavidin sensor
[11] = target: T7, HER2 on the surface of HER2+ cancer …; assay: flow cytometry on SKOV-3 cells (HER2+), 100 nM binding sites
Description: as §3, §4

[12] = target: T7, HER2 on the surface of HER2+ cancer …; assay: flow cytometry, SKOV-3 (HER2+) cells, tenfold dilutions 0.001-1000 nM
[13] = target: T8, HER2 protein (coated on ELISA plate) (human, UniProt P04626 23-652, limits assumed); assay: ELISA, periplasmic extract on coated antigen, anti-HA-HRP
T8 construct: also called HER2 antigen
Excerpt: as §1, §2

[14] = target: T6, Biotinylated Human Her2/ErbB2 Protein, …; assay: BLI (Octet), biotinylated HER2 on streptavidin sensor, VHH 1.875-60 nM; remark: listed apart in the source
[15] = target: T9, Biotinylated Human Fc gamma RIIIB/CD16b (NA1) Protein, His, Avitag (Acrobiosystems CDB-H82E4) (human, UniProt O75015 17-200, biotinylated (Avitag)); assay: BLI (Octet), biotinylated CD16b-NA1 on streptavidin sensor, VHH 1.875-60 nM
T9 construct: NA1 allele; also called CD16b-NAI
Description: (§5) An Octet® Streptavidin (SA) Biosensor was soaked for at least 10 min in DPBS supplemented with 0.1% Casein, biotinylated CD16a, CD16b-NA1, CD16b-NA2, and HER2 antigens were loaded onto the streptavidin (SA) biosensor until 1 nm shift was reached. Next, the sensor was dipped into the washing buffer (DPBS+0.05% Tween 20+0.1% Casein) for 2 min to reach the baseline. […] Then, in the dissociation step, sensors were dipped into the washing buffer for 5 min to acquire data (Table 5). The data were then analyzed using Octet Data Analysis HT 11.1 software. The sensorgrams were subtracted from the reference and fitted into 1:1 binding model for data analysis. Finally, the affinity and kinetics were analyzed using “Association and Dissociation”.

CD16b on neutrophils [16] = target: T1, CD16b on neutrophils; assay: flow cytometry on neutrophils (CD16b+)
Description: For flow cytometry, haNK92 cells (CD16a+) and Neutrophils (CD16b⁺) were used. […] The human Neutrophil cells were purchased from HemaCare and cultured according to the manufacturer's protocol. First, both cell lines were harvested and washed once using DPBS supplemented with 2% FBS (2% DPBS-FBS). For each sample, 0.5×10⁶ cells were stained with antibody on ice for 60 min. In this experiment, 3G8 monoclonal antibody was used as a positive control. This antibody binds to both CD16a and CD16b. Following washing three times, the secondary antibody, anti-Histag antibody FITC labeled, was added. After washing, the samples were run on Cytoflex using FL2 channel.
In this experiment, NK92 cells (CD16a⁺), neutrophils (CD16b⁺), and B cells (CD32b⁺) were used as cell controls. 3G8 (anti-CD16a/b) and AT10 (anti-CD32a/b) mAbs were used as antibody controls.

biotinylated CD32b = target: T10, biotinylated CD32b (UniProt P31994 46-217, biotinylated); assay: ELISA, biotinylated antigen on streptavidin plate
T10 construct: also called CD32b antigen
T10 sequence (looked up): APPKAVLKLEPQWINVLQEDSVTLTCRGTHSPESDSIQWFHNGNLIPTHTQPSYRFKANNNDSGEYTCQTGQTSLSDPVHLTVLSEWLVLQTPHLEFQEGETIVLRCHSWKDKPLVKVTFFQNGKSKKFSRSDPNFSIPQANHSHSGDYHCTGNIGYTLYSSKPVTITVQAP
Description: The purified VHHs were subjected to functional analysis using ELISA and flow cytometry. For ELISA, 50 μL of biotinylated CD16a, CD16b-NA1, CD16b-NA2, and CD32b were added to the streptavidin-coated plate and incubated for 45 min at RT. Following washing, the 100 μL of 100 nM purified VHHs were added and incubated at RT for 1 h. Next, 100 μL anti-HA tag HRP conjugated secondary antibody was added. Finally, the substrate was added for color development, and the plate was read using OD of 450 nm.
CD32b and skim milk were also used as antigen controls. 3G8 and eBioCB16, which are anti-CD16a/b mAbs were used as antibody controls. […] CD32b is a receptor that is expressed on B cells and responsible for inhibiting B cell activation. One of the disadvantages of mAb-based therapies is the binding of their Fc region to CD32b leading to the diminished activity of humoral immunity.

[17] = target: T11, Biotinylated Human Fc gamma RIIIA/CD16a (F176) Protein, Avitag, His Tag (Acrobiosystems CDA-H82E8) (human, UniProt P08637 17-208, biotinylated (Avitag)); assay: BLI (Octet), biotinylated CD16a on streptavidin sensor, VHH 1.875-60 nM
T11 construct: also called biotinylated CD16a; CD16a antigen
Description: as §5

T1 sequence (O75015 17-200): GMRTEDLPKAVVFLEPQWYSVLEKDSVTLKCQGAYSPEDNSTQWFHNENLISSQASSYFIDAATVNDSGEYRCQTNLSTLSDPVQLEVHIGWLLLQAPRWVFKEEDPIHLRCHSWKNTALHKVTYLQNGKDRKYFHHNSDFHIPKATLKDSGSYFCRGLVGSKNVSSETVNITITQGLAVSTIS
T9 sequence (O75015 other isoform, or with tags, fused parts or gaps limits assumed): as the sequence (O75015 17-200) above, with S20R, N66D, I90V counted along it
T11 sequence (P08637 17-208 limits assumed): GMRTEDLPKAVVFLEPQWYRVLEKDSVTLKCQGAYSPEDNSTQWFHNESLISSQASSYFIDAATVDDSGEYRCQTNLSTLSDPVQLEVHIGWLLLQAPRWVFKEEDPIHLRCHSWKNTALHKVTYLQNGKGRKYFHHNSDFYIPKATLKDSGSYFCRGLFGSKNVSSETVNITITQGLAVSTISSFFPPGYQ
T2 sequence (P08637 17-254 F176V): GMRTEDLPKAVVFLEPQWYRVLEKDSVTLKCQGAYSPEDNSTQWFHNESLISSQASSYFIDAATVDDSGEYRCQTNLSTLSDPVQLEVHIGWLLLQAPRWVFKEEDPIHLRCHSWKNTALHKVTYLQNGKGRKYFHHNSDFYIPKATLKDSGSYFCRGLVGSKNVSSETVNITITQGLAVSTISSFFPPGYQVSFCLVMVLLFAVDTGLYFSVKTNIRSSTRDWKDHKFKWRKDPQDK
T4 sequence (P02769 25-607 limits assumed): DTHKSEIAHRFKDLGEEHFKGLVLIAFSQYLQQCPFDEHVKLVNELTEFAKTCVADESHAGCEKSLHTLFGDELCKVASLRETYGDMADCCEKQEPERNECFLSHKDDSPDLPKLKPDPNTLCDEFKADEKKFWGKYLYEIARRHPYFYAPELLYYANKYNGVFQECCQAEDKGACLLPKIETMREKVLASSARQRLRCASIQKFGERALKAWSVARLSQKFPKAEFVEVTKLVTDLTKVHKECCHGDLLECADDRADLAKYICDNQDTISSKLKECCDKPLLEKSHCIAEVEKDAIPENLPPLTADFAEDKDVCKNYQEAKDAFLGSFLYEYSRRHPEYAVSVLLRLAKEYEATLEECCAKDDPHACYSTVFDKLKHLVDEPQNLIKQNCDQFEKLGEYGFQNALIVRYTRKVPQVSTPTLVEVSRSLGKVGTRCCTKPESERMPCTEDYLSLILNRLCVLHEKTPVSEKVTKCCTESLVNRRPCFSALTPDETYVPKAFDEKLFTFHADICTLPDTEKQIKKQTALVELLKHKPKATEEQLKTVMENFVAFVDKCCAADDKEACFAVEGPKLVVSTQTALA

## Isotype (antibody)
[1]
  FITC+ (%): 0.97%
  FITC- (%): 99%
  Mean (MFI): 915
CD16b on neutrophils [2]
  PE-: 90.6%
CD16b on neutrophils [3]
  PE-: 95.6%
CD16b on neutrophils [4]
  MFI: 867
  PE+: 4.42%
[5]
  FITC+ (%): 0.45%
  FITC- (%): 99.6%
  Mean (MFI): 935
[6]
  FITC+: 0.71%
  FITC-: 99.3%
  MFI: 25000

B1: E5 anti-HER2 VHH (VHH)
VHH: QVQLQESGGGLVQAGGSLRLDCAASGRTLSSYVVGWFRQAPGKEREVVAAIGWSRTSTFYTDSVKGRFTISRDNTENTVYLQMNSLKPGDTAVYYCAADSSPRRWDRESDFGSWGQGTQVTVSS
notes: also called E5 clone
HER3
  binding result: no binding (tested: extract, conc. not given)
Bovine serum albumin
  binding result: no binding (tested: extract, conc. not given)
HER1
  binding result: no binding (tested: extract, conc. not given)
[7]
  koff: 0.000702 s⁻¹
  kon: 969000 M⁻¹ s⁻¹
[8]
  FITC+ (%): 98.4%
  FITC- (%): 1.59%
  Mean (MFI): 102000
[9]
  EC50 (read off the curve): ~0.3 nM
[10]
  Kd: 0.724 nM
[11]
  FITC+ (%): 93.3%
  FITC- (%): 6.45%
  Mean (MFI): 106000
[12]
  EC50 (read off the curve): ~1 nM

B2: A3 (VHH)
VHH: QVQLQESGGGLVQAGGSLRISCAASGRTSDLFPVGWFRQAPGKEREIVAAIRWSGGVIGYGDPVKGRFTISTDNAKNTVYLQMNSLKPEDTAVYYCAAGPRESTVTWNYWGQGTHVTVSS
notes: not the anti-CD16a clone A3; also called A3 anti-HER2 VHH
HER3
  binding result: no binding (tested: extract, conc. not given)
Bovine serum albumin
  binding result: no binding (tested: extract, conc. not given)
[13]
  binding result: binds
HER1
  binding result: no binding (tested: extract, conc. not given)

B3: A1 anti-HER2 VHH (VHH)
VHH: QVQLQESGGGLVQPGGSLRLSCAASGHTLSTYVVAWFRQAPGKERESVAAIGWSSRSPYYPDSVKGRFTISEDNTKNTVYLQMNSLKPDDTAVYYCAADSYPRRWDRESDFGSWGQGTQVTVSS
notes: Llama VHH expressed in WK6 E. coli with C-terminal c-myc and His tags; also called A1 clone
HER3
  binding result: no binding (tested: extract, conc. not given)
Bovine serum albumin
  binding result: no binding (tested: extract, conc. not given)
HER1
  binding result: no binding (tested: extract, conc. not given)
[8]
  FITC+ (%): 98.8%
  FITC- (%): 1.23%
  Mean (MFI): 97000
[10]
  Kd: 1.3 nM
[11]
  FITC+ (%): 94.1%
  FITC- (%): 5.78%
  Mean (MFI): 101000
[14]
  Kd: 1.32 nM
  koff: 0.000411 s⁻¹
  kon: 309000 M⁻¹ s⁻¹

B4: E3 anti-CD16a VHH (VHH)
VHH: QVQLQESGGGLVQAGGSARLSCAASGRTFRLYRMGWFRQAPGKEREFVASIKMIDGSSLFGDPVKGRFTISRDNTKFMVYLQMNSLKPEDTAVYYCASVSRNTGSWDSWGQGTQVTVSSYPYDVPDYAHHHHHHHH
notes: also called E3 clone; E3 VHH
[15]
  Kd: 31.7 nM
  koff: 0.0131 s⁻¹
  kon: 412000 M⁻¹ s⁻¹
CD16b on neutrophils [16]
  binding result: no binding
Biotinylated CD32b
  binding result: no binding (tested: 100 nM)
[17]
  Kd: 0.579 nM
  koff: 0.000294 s⁻¹
  kon: 505000 M⁻¹ s⁻¹
